From paper PMC6426937
Each block holds one binder with its values, some of them ahead of it.

Biological target: Hsp82p (Saccharomyces cerevisiae Hsp90), N terminal 6xHis tag (Saccharomyces cerevisiae) (UniProt P02829)
Sequence (P02829 whole entry): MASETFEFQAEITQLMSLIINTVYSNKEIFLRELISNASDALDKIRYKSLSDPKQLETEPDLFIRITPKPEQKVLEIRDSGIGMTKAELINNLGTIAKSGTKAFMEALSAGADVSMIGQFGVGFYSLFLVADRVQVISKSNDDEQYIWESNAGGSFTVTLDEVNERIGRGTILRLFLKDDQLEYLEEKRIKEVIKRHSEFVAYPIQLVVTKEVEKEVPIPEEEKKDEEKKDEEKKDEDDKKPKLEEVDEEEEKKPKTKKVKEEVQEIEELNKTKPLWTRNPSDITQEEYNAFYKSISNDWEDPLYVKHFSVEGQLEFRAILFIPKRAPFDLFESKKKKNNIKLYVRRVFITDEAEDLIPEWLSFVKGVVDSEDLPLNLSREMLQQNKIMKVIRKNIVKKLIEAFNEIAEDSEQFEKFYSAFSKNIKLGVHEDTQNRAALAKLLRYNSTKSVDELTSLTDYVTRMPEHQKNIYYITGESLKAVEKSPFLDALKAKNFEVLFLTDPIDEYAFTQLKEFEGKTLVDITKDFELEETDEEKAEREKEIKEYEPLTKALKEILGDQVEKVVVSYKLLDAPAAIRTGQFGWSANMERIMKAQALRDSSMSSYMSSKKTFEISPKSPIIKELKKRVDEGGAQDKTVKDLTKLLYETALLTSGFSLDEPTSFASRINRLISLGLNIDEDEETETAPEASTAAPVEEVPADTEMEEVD

apparent affinity (Kapp) from stimulation of the Hsp82p ATPase activity by increasing co-chaperone (1 µM Hsp82p, 2 mM ATP, ATP regenerating system): 0.44 µM
B1: Aha1p^Δ11, C terminal 6xHis tag (domain or fragment)
chain: VDKNCIGWAKEYFKQKLVGVEAGSVKDKKYAKIKSVSSIEGDCEVNQRKGKVISLFDLKITVLIEGHVDSKDGSALPFEGSINVPEVAFDSEASSYQFDISIFKETSELSEAKPLIRSELLPKLRQIFQQFGKDLLATHGNDIQVPESQVKSNYTRGNQKSSFTEIKDSASKPKKNALPSSTSTSAPVSSTNKVPQNGSGNSTSIYLEPTFNVPSSELYETFLDKQRILAWTRSAQFFNSGPKLETKEKFELFGGNVISELVSCEKDKKLVFHWKLKDWSAPFNSTIEMTFHESQEFHETKLQVKWTGIPVGEEDRVRANFEEYYVRSIKLTFGFGAVL

apparent affinity (Kapp) from stimulation of the Hsp82p ATPase activity by increasing co-chaperone (1 µM Hsp82p, 2 mM ATP, ATP regenerating system): 1.24 µM
B2: Aha1p, C terminal 6xHis tag (natural protein)
chain: MVVNNPNNWHWVDKNCIGWAKEYFKQKLVGVEAGSVKDKKYAKIKSVSSIEGDCEVNQRKGKVISLFDLKITVLIEGHVDSKDGSALPFEGSINVPEVAFDSEASSYQFDISIFKETSELSEAKPLIRSELLPKLRQIFQQFGKDLLATHGNDIQVPESQVKSNYTRGNQKSSFTEIKDSASKPKKNALPSSTSTSAPVSSTNKVPQNGSGNSTSIYLEPTFNVPSSELYETFLDKQRILAWTRSAQFFNSGPKLETKEKFELFGGNVISELVSCEKDKKLVFHWKLKDWSAPFNSTIEMTFHESQEFHETKLQVKWTGIPVGEEDRVRANFEEYYVRSIKLTFGFGAVL
